# Results as given in the DeepSol protein solubility set.
# Experiment: soluble on expression in E. coli; label from the status in PepcDB or PDB records
row,Sequence,soluble on expression in E. coli
1,RSSLDLQLKNARNLAGLIIHDIDGYMMKGDSSEVDRFISAVKSKNFIMDLRVFDEQAKEVSPTPSQTPNAKIQQAIAAGRTLEFKETLDGKRTLSLVLPFPNEQRCQSCHDAGAAYLGGLLVTTSIEEGYEGARH,soluble
2,MIEIESRELADIPVLHAYPVGQKDTPLPCVIFYHGFTSSSLVYSYFAVALAQAGLRVIMPDAPDHGSRFSGDEARRLNQFWQILLQSMQEFTTLRAAIAEENWLLDDRLAVGGASMGAMTALGITARHPTVKCTASMMGSGYFTSLARSLFPPLIPETAAQQNEFNKIVAPLAEWEATNHLEQLGDRPLLLWHGLDDDVVPADESLRLQQALSETGRDKLLTCSWQPGVRHRITPEALDAAVTFFRQHL,not soluble
3,MSISIMTETRPESAEQQHHEVLQRPSDEPCSGCKQLQKDVAKTISMVMERMDKLQYRLDELLKENNELKSSSVSSGKASPSPAESRSSPKLVETVVAPVSGARKRKPKERSPPAAASPLPDFSNLMNGFMFDPLNMSNPNGMMQLLSMVQQQQQQQQHHQHIENQQSVSPPQSKSVKIEDPMDQDVKQEESERSDIPTATEAQNLLDALTAQFSSNGQATSTTSPPSSSSQVQAVIEAVATPSSQSQDSSMFEKTETSGDPNAARCSNCRTDKTTAWRRDAEGKLVCNPCGLYYRLHKVRRPIEMRKNHIQQRYRRKNKEKESSAATQIFNQLLTQMPTMATGGVSTDGAINTFNLLEQISQFTQAQELMNSSATF,not soluble
4,MGSDKIHHHHHHMFNLKPELVARLERVLTSVEMLLPRPTAPVDWSVCHAASWRRHSFSGYLEPVRQTDTVTLPELLGIEKQKEVMTNNTLQFLRGLPANNALLWGSRGTGKSSLVKALLNEYAAQGLRIVQVEKEDLIYLSEIFAAVENEPYRFILLCDDLSFEVGELSYKMLKSALDGSVYSAPENVLIYVTSNRRHLIPEYESDNVGWKYVNGELQQSEAMEEKISLSDRFGLWVAFHVFSQDRYLEAVRLCIEREARQRRVEIPWAKEIEREAIQWSHDKSKRCGRTAFQFSRHWVGRYLLGGR,not soluble
5,MSLKIKLETYYVCKGELAMNPEVSQLLEQIELRKDELLELTKTLIRFETPAPPARNTNEAQQFVADFLRKRNFSVDKWDVYPNDPNVVGVKKGIESETHKSLIINGHMDVAEVSADEAWEKNPFEPFIKDGWLVGRGAADMKGGLAGALFAIQLLEEAGIELPGDLIFQSVIGEEVGEAGTLQCCRRGYDADFAVVVDTSDLHMQGQGGVITGWITVKSPQTFHDATRRQMIHAGGRLFGASAIEKMMKIVQSLQELERHWAVMKTYEGYPSGTTTINPAVIEGGRHAAFIADECRLWITVHFYPNETHEQIIKEIEEYIGKVAAADPWLSENPPQFKWGGESMIVDRGEIFPSLEIDSEHAAVKTLSSVHESVLSKHAILDMSATVTDGGWFSEFHIPAVIYGPGTLEEAHSINEKVEVEQLIEFTKVITAFIYEWCHTKEGHHHHHH,soluble
6,MSETTQGPTHFRLMSKLKAIGPYLREPQSQEGRYYFDCLSVCVDDKKSPEKREFWGWWMDLESIEGGFTAKYHIGKYNKEGKWVSEALPQKVVEEVYFTQSTFHQKLIDTLAEHFKLEVEYHTESFDFA,not soluble
7,VVKRSRATRLSPSIWSGWESPQCRSIRARLLLPRGRSRPPNADCCWNQLAVTPDTRMPASSAAGRDAAAYDAWYDSPTGRPILATEVAALRPLIEVFAQPRLEIGVGTGRFADLLGVRFGLDPSRDALMFARRRGVLVANAVGEAVPFVSRHFGAVLMAFTLCFVTDPAAIFRETRRLLADGGGLVIGFLPRGTPWADLYALRAARGQPGYRDARFYTAAELEQLLADSGFRVIARRCTLHQPPGLARYDIEAAHDGIQAGAGFVAISAVDQAHEPKDDHPLESE,not soluble
8,MSEPASVPRGAAPGSRGTASPRAVVIGAGLAGMLAAAALHRHAEVTVVDRDVLPAEPAPRKGLPQARHAHLLWSGGARAMEDLLPGVTAAWLAAGARRIPLPTGLVSLSAQGWLRRWPEMEFMISCTRDLLDSVIREQVAKKEGVTLLAGTELLGLEGGALRVTGVRVRTPEGEERVLEADLVVDASGRGSRSVAWLDALGVPQAPMDEVDSGLAYASRIFRAPAGTEDFPVVNVQPDPAQPVPAQSATIVPVEGGRWLVTLSGTHGGQPTASAEEFEAFARGVRDPVVGELIAHAEPLTNVVLTRSTINRRRFFEKVKDWPEGFVAIGDAVATYNPVYGHGMSVAAQGAVALREHVAEHGLAAPGLARRAQRAVALPVKIAWELATGTDIRYPEAIGKQPGGTQKLLGRYVERLMRTATGRPLVAQAFLGVITLSRPLSTLVKPEVLFAVLRGPRRSPLAGPPLTPEERKAVLTAKEPSGTQAAGLEHHHHHH,not soluble
9,MITLREFKEENTAQLTHILNEPEVVKYLSSKIPKPDTLQDAQWWISTGSKFGIVKAIECNGSLIGCIGADRGEFEYQRSAEIGYWIAKDYWRQGVATQAISELIPLIFTTTDIVRLFASVFSENTASMRVLDKCGLKLEAIHKKAIYKDGKFYDNHIFSILKT,not soluble
10,MSDIERRHTIMAKGSVRKKGKKWYYRFYVEDASGNLVQKEYAGTESKSETEKLLRQAMDDYESKKFIAKSENITIGELLDIWAEEELKTGMLSNGTVQNYLGAITNIKKHPISERKLKNVTSEHLQAFFDLLSFGGTYPDGSERKGYSKDYIRSFSAVLQQSFRFAVSPKQYITFNPMQYIKLKYQTDEVDLFSDDDMDGDIQPIPREDYERLIEFLQNYNPPAILPIQIAYYAGLRIGEACGLAWQDVNLEEQCLTIRRSIRYDGSRHKNIIGPTKRKKVRIVDFGDTLAEILRNARKEQLKNRMQYGELYHKNYYREVKDKNRVYYEFYHLDGTENVPEDYKEISFVCLRPDGSLELPSTLGIVCRKIAQKLDGFEGFHFHQLRHTYTSNLLANGAAPKDVQELLGHSDVSTTMNVYAHSTRKAKRESARLLDKVAGND,not soluble
11,MSLKKLIVLTCTLSLLTACGDSIEKKAGEKLAAARAAFEHNDYNEAKLQIDSIKILYPKAFDTRKEGIKLMQQVELKEQQESLVYLDSMLQVKQEEFEAIKNKYTFEKNEEYQKIGNYFWPTQTVEKNLHRSFLRFQVNEQGVMTLTSIYCGPSNIHHVAVKVIAPDGSFAETPASNDSYETTDLGEKIEKADYKMGEDGNVLSFLYMNRDKKNIRVEYLGERKFSTTMTPSDREALVGTYELAKLLSSIRQIQQEKEEANLKIEFVKRKMEQKAQEEAAEKEGHHHHHH,soluble
12,MGSDKIHHHHHHMSYQDGKYQTEAEGLHGPVKVATTITGGKISAVEVLVGAGEYQSKANDVIASEIIAAQSTDVDAVSGATVSSNAIMTAVKKALQEASGESQDKTSEELTTDLAIVAAGPAGLAAAVSAAEQGVKILVFEKEKITGGTANMGMGPLGINSKIQRANFNEITVAEALKNQMEYTHYRVNGRLVARLLQIVCLNYRLVGRHGSQVRRGFPLLQGIQRHLAHR,not soluble
13,MSWDLSTAKPPVVVDTTLRDGSHAHRHQYTVEEARAIAQALDEAGVYAIEVSHGDGLGGSSLQYGFSRTDEMELIRAVRETVRRAKVAALLLPGIGTRKELKEAVEAGIQMVRIATQCTEADISEQHFGMAKEMGLEAVGFLMMSHMRPPEFLAEQARLMEGYGADVVYIVDSAGAMLPEDAYARVKALKEALSRAKVGFHAHNNLGLAIGNTLAALAAGADWVDATLRGYGAGAGNAPLEVLAAVLDKAGLNPGLDVFKLLDAAEYVMGPILHFQPYPDRDSVAIGYAGVYSTFLLHAKRIGKELGVDPLAILLELGRRQAVAGQEDWILRVALELKEKEAGALAD,soluble
14,MNVTIYDVAREASVSMATVSRVVNGNPNVKPSTRKKVLETIERLGYRPNAVARGLASKKTTTVGVIIPDISNIFYAELARGIEDIASMYKYNIILSNSDQNQDKQLHLLNNMLGKQVDGIIFMSGNVTEEHVEELKKSPVPVVLAASIESTNQIPSVTIDYEQAAFDAVQSLIDSGHKNIAFVSGTLEEPINHAKKVKGYKRALTESGLPVRDSYIVEGDYTYDSGIEAVEKLLEEDEKPTAIFVGTDEMALGVIHGAQDRGLNVPNDLEIIGFDNTRLSTMVRPQLTSVVQPMYDIGAVAMRLLTKYMNKETVDSSIVELPHRIEFRQSTK,soluble
15,MSFYYSNIVSNQEKTFYDAQFSMSSLKQVSPISGSPQRDDSFNISPASSSPDMLVETWKSDEENAKSESPSSQSTTATSTNDDLFASVGTWEVHANENNITVNKKKKRSRKIRRLRDVQDSDEERPKPVIALVPLVPNPFCVSDSLLSKLGPVATKRRRVCFNPTISFHYYCVDK,not soluble
